We go through 10 molecules from US20250026850A1 (TRISHULA THERAPEUTICS, published 2025).

In experiment [1] the target is T1, cynomolgus macaque (Macaca fascicularis) CD39 on cells (cynomolgus macaque (Macaca fascicularis), UniProt P49961 7-510 (human entry)).
T1 construct: CHO cells engineered to express cyno CD39, or primary cyno B cells and monocytes; also called cyno CD39; cCD39
T1 chain: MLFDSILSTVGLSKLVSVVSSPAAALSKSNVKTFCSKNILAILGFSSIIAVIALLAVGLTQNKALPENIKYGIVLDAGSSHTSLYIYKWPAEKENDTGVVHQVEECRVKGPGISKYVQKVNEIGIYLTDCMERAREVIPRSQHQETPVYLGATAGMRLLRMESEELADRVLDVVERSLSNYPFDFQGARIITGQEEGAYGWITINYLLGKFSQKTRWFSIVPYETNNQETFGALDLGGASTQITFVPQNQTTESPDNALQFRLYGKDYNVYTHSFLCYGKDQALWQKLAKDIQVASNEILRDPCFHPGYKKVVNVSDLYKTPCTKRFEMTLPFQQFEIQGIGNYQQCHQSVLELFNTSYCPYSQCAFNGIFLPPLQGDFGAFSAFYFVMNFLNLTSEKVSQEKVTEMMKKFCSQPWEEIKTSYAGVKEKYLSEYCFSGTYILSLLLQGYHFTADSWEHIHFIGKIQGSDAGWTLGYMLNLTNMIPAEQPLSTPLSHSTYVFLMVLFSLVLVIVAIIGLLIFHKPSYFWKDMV
Briefly: flow cytometry, 100 nM IgG, cCD39-CHO cells; MFI ratio to parental CHO. Here is the method: (§1) 100 nanomolar IgGs (each antibody is indicated as a unique clone number in the FIG.) were incubated at […] 30 minutes on ice in phosphate buffered saline (PBS) with parental CHO cells or CHO cells engineered to express either human or cynomolgus macaque (Macaca fascicularis) CD39 (CHO CD39 cells). Cells were then washed with ice cold PBS and incubated with a fluorescently labeled goat-anti-human IgG for 20 minutes on ice. Cells were washed and resuspended in ice cold PBS prior to analysis by flow cytrometry.
A general note: Flow cytometry measures light scatter and fluorescence of single cells or particles in a stream.

Experiment [2] addresses T2, human CD39 on cells (human, UniProt P49961 1-510).
T2 construct: One molecule for all cells that carry human CD39; the cell is named under assay; also called hCD39; cellular CD39
T2 sequence: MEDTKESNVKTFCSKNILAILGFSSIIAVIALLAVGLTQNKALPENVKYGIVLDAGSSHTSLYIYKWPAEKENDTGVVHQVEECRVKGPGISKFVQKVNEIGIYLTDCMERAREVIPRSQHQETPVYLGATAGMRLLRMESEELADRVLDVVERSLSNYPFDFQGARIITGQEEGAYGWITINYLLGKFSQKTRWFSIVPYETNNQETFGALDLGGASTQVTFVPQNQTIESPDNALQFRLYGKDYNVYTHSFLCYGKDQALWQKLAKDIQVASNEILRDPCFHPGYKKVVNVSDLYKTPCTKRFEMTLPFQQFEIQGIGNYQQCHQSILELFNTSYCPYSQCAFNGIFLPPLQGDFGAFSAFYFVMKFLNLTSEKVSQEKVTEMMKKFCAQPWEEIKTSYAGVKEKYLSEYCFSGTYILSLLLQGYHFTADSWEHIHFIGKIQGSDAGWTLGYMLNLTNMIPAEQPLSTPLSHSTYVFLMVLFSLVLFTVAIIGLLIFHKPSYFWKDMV
Briefly: flow cytometry, 100 nM IgG, hCD39-CHO cells; MFI ratio to parental CHO. Here is the method:
as §1

Experiment [3] has as its target T3, rhCD39-ECD-His (R&D Systems) (human, UniProt P49961 38-478).
T3 construct: Bought protein; that entry runs on through the C-terminal transmembrane and cytoplasmic residues; also called recombinant human CD39 extracellular domain; soluble recombinant human CD39 (ENTDP1) ECD; not shown: His tag
T3 sequence: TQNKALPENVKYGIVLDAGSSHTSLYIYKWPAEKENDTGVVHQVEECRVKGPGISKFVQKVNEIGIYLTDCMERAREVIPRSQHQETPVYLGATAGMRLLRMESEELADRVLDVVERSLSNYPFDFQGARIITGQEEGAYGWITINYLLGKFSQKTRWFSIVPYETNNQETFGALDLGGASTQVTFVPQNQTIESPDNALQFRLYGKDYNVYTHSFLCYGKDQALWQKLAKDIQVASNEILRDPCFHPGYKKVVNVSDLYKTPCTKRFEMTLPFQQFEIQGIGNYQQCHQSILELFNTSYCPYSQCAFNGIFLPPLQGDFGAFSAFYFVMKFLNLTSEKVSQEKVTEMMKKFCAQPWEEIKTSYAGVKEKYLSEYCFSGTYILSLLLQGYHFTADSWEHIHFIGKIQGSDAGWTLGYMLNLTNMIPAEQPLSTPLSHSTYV
Briefly: BLI (Octet), IgG on anti-human Fc sensor, rhCD39-ECD-His 10-300 nM, 1:1 fit. Here is the method:
The kinetic data was globally fit with a simple 1:1 Langmuir binding model to yield on-rate (kon) and off-rate (koff) values. The equilibrium dissociation constants (KD) were calculated from the kon and koff values.
Binding kinetics were measured using the Octet Red96 system (ForteBio) at 25° C. in running buffer (1× Pall ForteBio Kinetics Buffer diluted into PBS or Tris pH 7.4). […] After a short baseline step in running buffer, the sensors were exposed to varying concentrations (10-300 nM) of rhCD39-ECD-His (R&D Systems) for the association step. Dissociation of the complex was monitored upon exposure of the sensors to running buffer once again. Data was processed using ForteBio Octet software with baseline subtraction, global fit and 1:1 binding model to obtain association and dissociation rates. KD was calculated from the ratio of kd to kₐ.

Experiment [4] deals with T2, human CD39 on cells. Briefly: flow cytometry on 721 cells, anti-human IgG secondary, Prism fit; unit from the x axis. Here is the method:
(§2) Cells were washed 3 times in FACS buffer (PS, 2% FBS, and 2 mM EDTA) and next incubated with secondary antibody (goat anti-human IgG Southern Biotech) at 1:100 for 30 minutes at 4 degrees C. Cells were washed, resuspended in FACS buffer, and analyzed for binding by flow cytometry analysis on BD Celesta.

Experiment [5] addresses T2, human CD39 on cells. In words: flow cytometry on MEL-28 cells, anti-human IgG secondary, Prism fit; unit from the x axis. How it is done:
as §2

Experiment [6] has as its target T2, human CD39 on cells. Briefly: flow cytometry on purified human B cells, anti-human IgG-PE, Prism fit; unit from the x axis. How it is done: (§3) EC50 was calculated using GrapPad Prism software. […] B cells were gated using FlowJo software and ECsos were calculated using GraphPad Prism.
(§4) B cells were isolated from human donor leukopak using EasySep B cell isolation kit ([…] Technologies). Cyno monocytes were purified from fresh cyno blood using NHP CD14 positive selection kit (Miltenyi) and flow through was collected and stained with CD4, CD8, CD20, CD16, and CD3 antibodies (BD). […] Cell were washed 3 times in FACS buffer (PS, 2% FBS, and 2 mM EDTA) and incubated with secondary antibody (mouse anti-human IgG southern biotech) at 1:100 for 30 minutes at 4 degrees C. Cells were washed 2 times in FACS buffer and resuspended in FACS buffer and analyzed on BD Celesta.

The target in experiment [7] is T1, cynomolgus macaque (Macaca …). Briefly: flow cytometry on cyno PBMC, gated B cells, anti-human IgG PE, Prism fit; unit from the x axis. Here is the method:
as §3, §4

In experiment [8] the target is T2, human CD39 on cells. Briefly: flow cytometry on purified human CD4+CD25+CD127dim Treg cells, anti-human IgG secondary, Prism fit; unit from the x axis. How it is done: Treg cells were isolated from human donor leukopak using CD4⁺CD25⁺CD127^dim regulatory T cell isolation kit II (Miltenyi). […] Cell were washed 3 times in FACS buffer (PS, 2% FBS, and 2 mM EDTA) and incubated with secondary antibody (mouse anti-human IgG southern biotech) at 1:100 for 30 minutes at 4 degrees C. Cells were washed 2 times in FACS buffer, resuspended in FACS buffer and analyzed on BD Fortessa.

Substitutions are numbered along the chain they refer to.

B1: 31393 (antibody, V domains shown)
VH: QVQLVQSGAEVKKPGSSVKVSCKASGGTFESYGISWVRQAPGQGLEWMGSIIPEFGIANYAQKFQGRVTITADESTSTTYMELSSLRSEDTAVYYCARESGGYRDHRLDVWGQGTMVTVSS
VL: EIVMTQSPATLSVSPGERATLSCRASQSVGSNLAWYQQKPGQAPRLLIYGASTRATGIPARFSGSGSGTEFTLTISSLQSEDFAVYYCQQYLLWPLTFGGGTKVEIKR
The Kd is the concentration at which binding is half-saturated. Higher therefore signals a looser complex. For orientation: koff means the rate constant with which the complex falls apart. The term kon denotes the rate constant with which the complex forms. A higher kon goes with faster complex formation. In the case of B1, in experiment [1], the “Cell Binding (FOB)” value was 2960 FOB. For the same molecule, the “Cell Binding (FOB)” value in experiment [2] was determined as 1060 FOB. In experiment [3], this molecule registered a dissociation constant (Kd) of 672 pM, a dissociation rate constant (koff) of 0.0002 s⁻¹ and a kon of 298000 M⁻¹ s⁻¹.

B2: 31861 (antibody, V domains shown)
VH: B1 VH with E30G, T79A, G102T
VL: B1 VL
As to B2, the “Cell Binding (FOB)” value in experiment [1] was found to be 5480 FOB. Besides, the “Cell Binding (FOB)” value in experiment [2] turned out to be 1430 FOB. In experiment [3], this molecule displayed a Kd of 1160 pM, a koff of 0.000286 s⁻¹ and a kon of 246000 M⁻¹ s⁻¹.

B3: 31873 (antibody, V domains shown)
VH: B1 VH with E30S, S31K, T79A, D109G
VL: B1 VL with T56S
On to B3, for which the “Cell Binding (FOB)” value in experiment [1] came to 5080 FOB. The “Cell Binding (FOB)” value in experiment [2] was determined as 1320 FOB. Also, in experiment [3], the dissociation constant Kd was found to be 922 pM, the koff is 0.000286 s⁻¹ and the kon was found to be 311000 M⁻¹ s⁻¹.

B4: 29851 (antibody, V domains shown)
VH: QVQLVQSGAEVKKPGSSVKVSCKASGGTFASLAISWVRQAPGQGLEWMGGILPIFGEANYAQKFQGRVTITADESTSTAYMELSSLRSEDTAVYYCARGGAKYASTYGMDVWGQGTTVTVSS
VL: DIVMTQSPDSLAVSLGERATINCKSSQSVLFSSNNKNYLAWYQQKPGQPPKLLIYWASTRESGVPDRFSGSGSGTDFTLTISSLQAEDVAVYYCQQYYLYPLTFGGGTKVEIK
As to B4, in experiment [1], the “Cell Binding (FOB)” value is 398 FOB. Also, the “Cell Binding (FOB)” value in experiment [2] stood at 129 FOB. In experiment [3], the affinity, expressed as Kd, was 1230 pM; the koff is 0.000385 s⁻¹; the kon stood at 313000 M⁻¹ s⁻¹.

B5: 31437 (antibody, V domains shown)
VH: B4 VH with S16A, A30Q, F55G, E57T, S105G, T106R
VL: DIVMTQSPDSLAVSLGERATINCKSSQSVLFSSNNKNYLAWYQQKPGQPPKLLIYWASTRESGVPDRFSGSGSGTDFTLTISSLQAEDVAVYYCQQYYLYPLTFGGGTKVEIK
As usually defined, the EC50 is the concentration needed to bring the measured effect to its halfway point. Low readings indicate greater potency, high ones weaker potency. B5: the “Cell Binding (FOB)” value stood at 3640 FOB in experiment [1] and 1290 FOB in experiment [2]. The same molecule gave an equilibrium dissociation constant (Kd) in experiment [3] of 558 pM. The molecule further gave a koff in experiment [3] of 0.000213 s⁻¹. This molecule showed a kon in experiment [3] of 382000 M⁻¹ s⁻¹. Further, the EC50 in experiment [4] is 7.46 µg/mL; in experiment [5] it was 0.368 µg/mL; in experiment [6], 0.109 µg/mL; in experiment [7], 0.108 µg/mL.

B6: 29857 (antibody, V domains shown)
VH: B4 VH with A30S, S31W, L52I, I54R, F55G, E57T
VL: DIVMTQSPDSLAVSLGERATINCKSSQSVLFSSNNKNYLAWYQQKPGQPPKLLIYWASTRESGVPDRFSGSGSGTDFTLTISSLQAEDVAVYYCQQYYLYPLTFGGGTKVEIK
As to B6, the “Cell Binding (FOB)” value in experiment [1] turned out to be 1140 FOB. Besides, in experiment [2], the “Cell Binding (FOB)” value worked out at 224 FOB. In experiment [3], the dissociation constant (Kd) was 760 pM, the koff worked out at 0.000229 s⁻¹ and the kon came out at 302000 M⁻¹ s⁻¹.

B7: 31436 (antibody, V domains shown)
VH: B4 VH with A30S, S31L, F55A, E57T, S105V, T106G
VL: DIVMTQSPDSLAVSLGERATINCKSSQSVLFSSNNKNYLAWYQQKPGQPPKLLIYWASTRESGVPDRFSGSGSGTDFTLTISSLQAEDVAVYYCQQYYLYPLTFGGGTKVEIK
B7: the “Cell Binding (FOB)” value in experiment [1] came out at 3570 FOB. Also, in experiment [2], the “Cell Binding (FOB)” value was found to be 1320 FOB. In experiment [3], the dissociation constant Kd was found to be 924 pM, the koff was 0.000243 s⁻¹ and the on-rate constant (kon) is 263000 M⁻¹ s⁻¹.

B8: 31432 (antibody, V domains shown)
VH: B4 VH with A30S, S31H, L32T, F55G, E57T, T106Q, Y107L
VL: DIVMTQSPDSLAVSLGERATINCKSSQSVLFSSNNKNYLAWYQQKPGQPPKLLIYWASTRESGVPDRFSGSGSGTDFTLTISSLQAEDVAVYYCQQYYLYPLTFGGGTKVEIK
As to B8, the “Cell Binding (FOB)” value in experiment [1] is 5700 FOB. Moreover, the “Cell Binding (FOB)” value in experiment [2] was determined as 1170 FOB. Besides, in experiment [3], the affinity, expressed as Kd, was 1070 pM; the koff was 0.000286 s⁻¹; the on-rate (kon) was found to be 268000 M⁻¹ s⁻¹.

B9: 31901 (antibody, V domains shown)
VH: QVQLVQSGAEVKKPGSSVKVSCKASGGTFSSLPISWVRQAPGQGLEWMGGIGFGTANYAQKFQGRVTITADESTSTAYMELSSLRSEDTAVYYCARGGAKYAGRYGMDVWGQGTTVTVSS
VL: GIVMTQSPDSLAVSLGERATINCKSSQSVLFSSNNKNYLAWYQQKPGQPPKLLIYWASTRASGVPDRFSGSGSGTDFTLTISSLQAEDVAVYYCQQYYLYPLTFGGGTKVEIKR
In the case of B9, the “Cell Binding (FOB)” value in experiment [1] amounted to 4660 FOB; in experiment [2] it was 1110 FOB. The molecule further had an equilibrium dissociation constant (Kd) in experiment [3] of 128 pM. For the same molecule, the dissociation rate constant (koff) in experiment [3] was determined as 0.000132 s⁻¹. The molecule also had a kon in experiment [3] of 1.03e+06 M⁻¹ s⁻¹. Moreover, the EC50 in experiment [4] was 0.851 µg/mL; in experiment [5], 0.102 µg/mL; in experiment [6], 0.0438 µg/mL; in experiment [7], 0.124 µg/mL; in experiment [8], 519 pM.

B10: 31905 (antibody, V domains shown)
VH: B9 VH with S30P, L32N, P33A, G103R, R104T
VL: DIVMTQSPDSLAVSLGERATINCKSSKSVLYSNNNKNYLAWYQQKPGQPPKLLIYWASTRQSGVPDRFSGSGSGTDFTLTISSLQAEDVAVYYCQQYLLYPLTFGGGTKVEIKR
In the case of B10, the “Cell Binding (FOB)” value stood at 4940 FOB in experiment [1] and 1080 FOB in experiment [2]. For the same molecule, the Kd in experiment [3] turned out to be 73.1 pM. Moreover, the dissociation rate constant (koff) in experiment [3] came to 0.000111 s⁻¹. Also, the on-rate constant (kon) in experiment [3] was 1.52e+06 M⁻¹ s⁻¹. The EC50 came out at 2.63 µg/mL in experiment [4]; 0.159 µg/mL in experiment [5]; 0.0805 µg/mL in experiment [6]; 0.124 µg/mL in experiment [7]; 735 pM in experiment [8].
